# T1: Trypanosoma brucei enolase (Trypanosoma brucei)
# T1 chain: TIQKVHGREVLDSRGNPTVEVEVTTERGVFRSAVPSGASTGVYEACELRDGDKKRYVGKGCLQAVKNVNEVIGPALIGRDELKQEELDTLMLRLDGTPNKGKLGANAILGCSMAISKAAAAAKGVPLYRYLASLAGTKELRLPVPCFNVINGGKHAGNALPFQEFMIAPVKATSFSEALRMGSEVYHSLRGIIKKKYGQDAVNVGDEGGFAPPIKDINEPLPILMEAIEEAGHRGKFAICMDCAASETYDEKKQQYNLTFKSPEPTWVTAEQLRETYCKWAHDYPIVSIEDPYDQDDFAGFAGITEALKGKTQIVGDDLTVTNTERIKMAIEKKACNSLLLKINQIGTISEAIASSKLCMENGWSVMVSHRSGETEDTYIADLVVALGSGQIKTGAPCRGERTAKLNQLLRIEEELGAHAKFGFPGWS
# Molecular target: T1, Trypanosoma brucei enolase
# Assay: ITC
binder,measurement,value
sdAbR1-10 (VHH) VHH: QVQLQESGGGLVQPGGSLRLSCAAPGSIFSIFSGNIMGWYRQAPGKQRDFVASISSGGATNYADSVKGRFTISRDNAKNTVYLQMNNLKPEDTAVYYCNTVGGVHTNSWGQGTQVTVSS,Kd,18.6 nM
